± gives the uncertainty stated by the source.
B1: Death-inducer obliterator 1, residues 263 to 321; numbered along this chain, Q9BTC0 (parent)
chain: GYDPNALYCICRQPHNNRFMICCDRCEEWFHGDCVGISEARGRLLERNGEDYICPNCTI

Variants of: B1
Test: abundance fitness (aPCA) (normalised: wild type 0, dead -1); higher = more abundant; growth selection in yeast, the domain comes from the species named
Conditions: Homo sapiens

Abundance fitness, by site and new letter:
Y8: T 0.264 ± 0.1 | V 0.041 ± 0.044 | W -0.154 ± 0.094
C9: A -0.636 ± 0.1 | E -0.664 ± 0.12 | F -0.659 ± 0.15 | G -0.535 ± 0.083 | I -0.823 ± 0.33 | K -1 ± 0.28 | L -0.813 ± 0.083 | M -0.606 ± 0.12 | N -1.01 ± 0.31 | P -0.877 ± 0.24 | Q -0.495 ± 0.089 | R -0.534 ± 0.042 | S -0.859 ± 0.096 | T -0.743 ± 0.14 | V -0.552 ± 0.069 | W -0.543 ± 0.075 | Y -0.763 ± 0.22
I10: A -0.084 ± 0.068 | D -0.418 ± 0.25 | E -0.143 ± 0.073 | G -0.217 ± 0.11 | H 0.105 ± 0.077 | K -0.064 ± 0.087 | L -0.105 ± 0.048 | M 0.035 ± 0.065 | N 0.011 ± 0.09 | Q -0.182 ± 0.22 | S 0.018 ± 0.06 | T 0.017 ± 0.063 | V -0.116 ± 0.049 | W -0.169 ± 0.11 | Y -0.449 ± 0.13
C11: D -0.381 ± 0.19 | E -0.622 ± 0.093 | F -0.724 ± 0.28 | G -1.15 ± 0.2 | I -0.785 ± 0.12 | L -0.861 ± 0.11 | M -0.71 ± 0.11 | N -0.708 ± 0.21 | P -0.999 ± 0.16 | Q -0.609 ± 0.16 | R -0.861 ± 0.087 | S -0.92 ± 0.12 | T -0.747 ± 0.13 | W -0.953 ± 0.2
R12: A -0.14 ± 0.1 | C -0.216 ± 0.15 | D -0.101 ± 0.21 | E -0.04 ± 0.094 | F -0.207 ± 0.081 | G 0.184 ± 0.069 | H 0.019 ± 0.095 | I -0.48 ± 0.14 | K 0.148 ± 0.061 | L -0.11 ± 0.056 | M -0.305 ± 0.092 | P -0.463 ± 0.08 | Q -0.186 ± 0.093 | T -0.105 ± 0.066 | V -0.36 ± 0.063 | W -0.284 ± 0.11 | Y -0.296 ± 0.098
Q13: A 0.183 ± 0.07 | D 0.02 ± 0.11 | E 0.072 ± 0.07 | F -0.159 ± 0.1 | G -0.233 ± 0.097 | H -0.159 ± 0.2 | I -0.111 ± 0.072 | K -0.054 ± 0.066 | L -0.089 ± 0.05 | M 0.149 ± 0.055 | N -0.061 ± 0.15 | P -0.692 ± 0.17 | R -0.085 ± 0.072 | S -0.136 ± 0.052 | T 0.105 ± 0.076 | V -0.068 ± 0.041 | Y -0.161 ± 0.12
P14: A 0.006 ± 0.067 | D -0.284 ± 0.079 | E 0.141 ± 0.059 | F -0.084 ± 0.079 | G 0.018 ± 0.046 | H -0.04 ± 0.085 | I -0.028 ± 0.078 | K 0.201 ± 0.055 | L 0.022 ± 0.054 | M 0.004 ± 0.098 | N -0.003 ± 0.073 | Q 0.079 ± 0.11 | S 0.035 ± 0.056 | T 0.031 ± 0.064 | V 0.07 ± 0.05 | W -0.496 ± 0.17 | Y 0.111 ± 0.087
H15: A -0.088 ± 0.073 | C 0.018 ± 0.09 | D 0.073 ± 0.11 | E 0.029 ± 0.094 | F -0.414 ± 0.16 | G 0.017 ± 0.055 | I -0.039 ± 0.082 | K -0.121 ± 0.075 | L 0.058 ± 0.049 | M 0.138 ± 0.065 | N 0.051 ± 0.092 | P -0.126 ± 0.079 | Q -0.148 ± 0.11 | S 0.164 ± 0.053 | V 0.076 ± 0.05 | W -0.037 ± 0.063 | Y -0.025 ± 0.093
N16: C -0.211 ± 0.089 | D -0.049 ± 0.091 | E 0.072 ± 0.082 | F -0.184 ± 0.079 | G 0.152 ± 0.069 | H 0.108 ± 0.13 | I -0.109 ± 0.1 | K -0.019 ± 0.081 | L -0.064 ± 0.056 | M 0.065 ± 0.055 | P -0.218 ± 0.074 | Q 0.027 ± 0.12 | S -0.119 ± 0.058 | T 0.058 ± 0.064 | V -0.045 ± 0.057 | W -0.072 ± 0.12 | Y -0.399 ± 0.15
N17: A -0.03 ± 0.06 | C -0.117 ± 0.12 | D -0.148 ± 0.075 | F -0.182 ± 0.082 | G 0.032 ± 0.051 | H 0.008 ± 0.11 | I -0.142 ± 0.11 | K 0.023 ± 0.12 | L -0.05 ± 0.053 | M -0.043 ± 0.089 | P -0.179 ± 0.1 | Q 0.181 ± 0.15 | S -0.111 ± 0.054 | T -0.07 ± 0.074 | V -0.374 ± 0.073 | W -0.317 ± 0.11 | Y -0.086 ± 0.059
R18: A -0.073 ± 0.062 | C -0.047 ± 0.083 | D -0.167 ± 0.081 | E -0.023 ± 0.11 | F -0.24 ± 0.17 | G 0.105 ± 0.062 | H 0.112 ± 0.096 | I -0.215 ± 0.17 | K 0.009 ± 0.082 | M 0.139 ± 0.07 | N -0.168 ± 0.13 | P -0.34 ± 0.15 | Q 0.042 ± 0.092 | S 0.104 ± 0.074 | V 0.03 ± 0.052 | W -0.16 ± 0.083 | Y 0.011 ± 0.086
F19: A -0.182 ± 0.085 | E -0.291 ± 0.14 | G -0.224 ± 0.095 | H 0.062 ± 0.27 | I -0.028 ± 0.08 | K -0.166 ± 0.091 | L -0.016 ± 0.056 | M -0.265 ± 0.1 | N -0.341 ± 0.23 | P 0.088 ± 0.076 | Q 0.048 ± 0.059 | R -0.145 ± 0.062 | S -0.143 ± 0.052 | V -0.166 ± 0.074 | W -0.016 ± 0.082 | Y 0.058 ± 0.08
M20: A -0.343 ± 0.1 | C -0.209 ± 0.1 | D -0.559 ± 0.28 | E -0.403 ± 0.19 | F -0.216 ± 0.14 | G -0.023 ± 0.069 | I 0.045 ± 0.073 | L -0.037 ± 0.061 | P -0.519 ± 0.15 | Q -0.077 ± 0.11 | R -0.07 ± 0.057 | S 0.002 ± 0.051 | T 0.053 ± 0.074 | V -0.077 ± 0.082 | W -0.323 ± 0.12 | Y -0.304 ± 0.18
I21: A -0.144 ± 0.1 | D -0.692 ± 0.21 | E -0.494 ± 0.16 | F -0.243 ± 0.083 | G -0.575 ± 0.22 | H -0.4 ± 0.097 | K -0.04 ± 0.091 | L -0.051 ± 0.047 | M -0.104 ± 0.077 | Q -0.164 ± 0.11 | R -0.156 ± 0.07 | T -0.177 ± 0.074 | V 0.132 ± 0.068 | W -0.582 ± 0.32 | Y 0.036 ± 0.094
C22: A 0.116 ± 0.09 | E 0.023 ± 0.096 | F 0.137 ± 0.12 | G 0.073 ± 0.073 | H 0.056 ± 0.12 | I 0.07 ± 0.063 | K 0.058 ± 0.055 | M 0.102 ± 0.068 | N 0.029 ± 0.18 | P 0.02 ± 0.069 | Q 0.075 ± 0.064 | R 0.11 ± 0.078 | S 0.023 ± 0.056 | T 0.185 ± 0.062 | V 0.269 ± 0.066 | W 0.08 ± 0.074 | Y 0.12 ± 0.14
C23: D -0.532 ± 0.22 | E -0.966 ± 0.14 | G -0.864 ± 0.1 | H -1 ± 0.24 | K -0.408 ± 0.099 | L -1.03 ± 0.1 | M -1.26 ± 0.28 | P -0.296 ± 0.11 | Q -0.821 ± 0.13 | R -0.792 ± 0.095 | S -0.594 ± 0.084 | T -0.918 ± 0.14 | V -1.08 ± 0.11 | W -0.942 ± 0.27 | Y -1.17 ± 0.17
D24: A 0.139 ± 0.054 | C 0.048 ± 0.06 | E 0.026 ± 0.11 | G 0.166 ± 0.051 | I -0.124 ± 0.12 | K 0.192 ± 0.062 | L -0.176 ± 0.059 | M 0.073 ± 0.068 | N 0.196 ± 0.056 | P 0.082 ± 0.064 | R 0.138 ± 0.056 | S -0.092 ± 0.068 | T -0.032 ± 0.076 | V 0.258 ± 0.074 | W -0.227 ± 0.085 | Y -0.073 ± 0.077
R25: A 0.125 ± 0.076 | C -0.191 ± 0.1 | D -0.027 ± 0.18 | E 0.163 ± 0.13 | F -0.068 ± 0.075 | G -0.085 ± 0.075 | H -0.032 ± 0.12 | I -0.197 ± 0.11 | K 0.118 ± 0.065 | L -0.057 ± 0.059 | M -0.023 ± 0.054 | N 0.101 ± 0.12 | P -0.052 ± 0.077 | Q 0.124 ± 0.061 | S -0.019 ± 0.043 | T 0.039 ± 0.096 | V 0.063 ± 0.1 | W -0.261 ± 0.1
C26: A -0.411 ± 0.13 | D -0.808 ± 0.17 | E -0.632 ± 0.14 | F -1.06 ± 0.23 | G -0.72 ± 0.099 | H -0.672 ± 0.21 | I -0.578 ± 0.22 | K -0.863 ± 0.24 | L -1.03 ± 0.13 | M -0.926 ± 0.14 | P -0.599 ± 0.17 | Q -0.985 ± 0.25 | R -1.02 ± 0.16 | T -0.782 ± 0.16 | W -0.416 ± 0.19 | Y -0.794 ± 0.13
E27: C -0.237 ± 0.12 | D 0.012 ± 0.11 | G -0.074 ± 0.072 | I -0.158 ± 0.072 | K 0.237 ± 0.068 | L -0.107 ± 0.05 | P -0.004 ± 0.082 | Q -0.066 ± 0.11 | R -0.071 ± 0.047 | S -0.033 ± 0.053 | T -0.007 ± 0.067 | V -0.193 ± 0.084 | W -0.09 ± 0.076 | Y 0.015 ± 0.067
E28: A -0.153 ± 0.076 | C -0.032 ± 0.11 | D 0.125 ± 0.13 | F -0.028 ± 0.07 | H -0.075 ± 0.084 | I -0.235 ± 0.12 | K 0.045 ± 0.065 | L -0.055 ± 0.055 | M -0.056 ± 0.12 | N -0.231 ± 0.17 | P -0.742 ± 0.13 | Q -0.198 ± 0.1 | S -0.106 ± 0.057 | T 0.065 ± 0.066 | V 0.015 ± 0.058 | W -0.019 ± 0.098 | Y -0.122 ± 0.09
W29: A 0.161 ± 0.056 | C 0.045 ± 0.084 | D 0.025 ± 0.18 | E 0.277 ± 0.1 | G -0.02 ± 0.067 | H -0.02 ± 0.12

From the Human Domainome abundance scans (Beltran et al. 2025)
